Experimental findings from US20050153287A1, “Nr3b nmda receptor subunit compositions and related methods” (priority 2001, published 2005) are described below.

Assay type in all cases: cell-based
Test [1] deals with NMDA receptor (NR1 and NR2A). The experiment in a line: Glutamate-induced whole-cell current in transfected HEK293 cells. The method, then: (§1) To express the receptors in HEK293 cells, the cells were transfected with 1 μg of each plasmid unless otherwise stated (Shi et al., 1999). The NR1 and NR2A were tagged with green fluorescent protein (GFP) on the extracellular domain to facilitate the identification of transfected cells. […] NMDA receptor mediated current was recorded in the presence of 10 μM glycine. AMPA receptor current was recorded as described (Shi et al., 1999). Pipette solutions contained (in mM) Cs-methanesulfonate 110; CsCl 30; NaCl 4; HEPES 10; EGTA 5; CaCl2 0.5 adjusted to pH 7.3 with CsOH. 1 mM glutamate (for NMDA receptor) or kainate (for AMPA receptor) was pressure (1.0 PSI) applied through a puffer pipette positioned ˜10 μm to the cells. A program based on Igor (WaveMetrics, Inc., Lake Oswego, Oreg.) was used to acquire data on a Macintosh computer.

Test [2] relates to AMPA receptor (GluR2-(R586Q)). The experiment in a line: Kainate-induced AMPA receptor current in transfected HEK293 cells. The conditions noted are these: coexpression of NR3B with GluR2-(R586Q) in HEK293 cells. On the procedure:
as §1

Test [3] relates to NR1 and NR2A tagged with GFP. Kind of test: Expression levels of GFP-tagged NR1 and NR2A by fluorescence intensity. As to conditions: presence or absence of NR3B; NR1 and NR2A individually expressed with NR3B. The method, then: as §1
The electrophysiological properties of NR3B were tested by expressing NR3B in HEK293 cells. A conventional NMDA receptor channel is formed by a heteromeric combination of NR1, which is a key subunit for functionality, and at least one NR2 subunit, which is modulatory (Dingledine et al., 1999). […] NR1 and NR2A tagged with GFP were individually expressed with NR3B and their expression levels were measured by the fluorescence intensity. The statistical significance in this figure was assessed by Kolmogorov-Smirnov test. […]

B1: NR3B: mouse NR3B NMDA receptor subunit polypeptide (SEQ ID NO: 2), expressed from cDNA plasmid in HEK293 cells (protein, listed as Mus musculus)
chain: MECVQTLWLSLALALARGSWVVRGHPQPCGVPTRAGASVRLAALLPRAPAARARVLAALATPSPRLPHNLSLELVAVASPTRDPASLARGLCQVLAPPGVVASITFPEARPELRLLQFLAAATETPVLSVLRREVRAPLGAPTPFHLQLDWASPLETILDVLVSLVRAHAWEDIALVLCRVRDPSGLVTLWTSRASQAPKFVLDLSQLDSGNDSLRATLALLGTLEGGGTPVSAAVLLGCSTAHAHEVLEAAPPGPQWLLGTPLPAEALPKTGLPPGVLVLGETGQPSLEAAVHDMVELVARALSSMALMHPERALLPAAVNCEDLKTGGSESTARTLARFLSNTSFQGRTGAVWVAGSSQVHVSRHFKVWSLRRDPLGAPAWATVGSWQDGQLDFQPGAAALRVPSPSGTQARPKLRVVTLVEHPFVFTRESDEDGQCPAGQLCLDPGTNDSARLDALFTALENGSVPRTLRRCCYGYCIDLLERLAEDLAFDFELYIVGDGKYGALRDGRWTGLVGDLLAGRAHMAVTSFSINSARSQVVDFTSPFFSTSLGIMVRTRDTASPIGAFMWPLHWSMWVGVFAALHLTALFLTLYEWRSPYGLTPRGRNRGTVFSYSSALNLCYAILFGRTVSSKTPKCPTGRFLMNLWAIFCLLVLSSYTANLAAVMVGDKTFEELSGIHDPKLHHPSQGFRFGTVWESSAEAYIKASFPEMHAHMRRHSAPTTPHGVAMLTSDPPKLNAFIMDKSLLDYEVSIDADCKLLTVGKPFAIEGYGIGLPQNSPLTSNLSEFISRYKSSGFIDLLHDKWYKMVPCGKRVFAVTETLQMGVYHLSGLFVLLCLGLGSALLTSLGEHVFYRLVLPRIRRGNKLQYWLHTSQKIHRALNTGPPEGQQERAEQECSGPKEEQPAADGAGRWRRVRRAVVERERRVRFLLEPGEAGGDHPWLCSNGPGVQAELRELELRIEAARERLRSALLRRGELRAQLGDGTRLRPLRLLHAAPAES
With B1, the glutamate-induced whole-cell current entry in test [1] (NR3B coexpressed with NR1 and NR2A in HEK293 cells, compared with NR1 and NR2A alone) was “markedly depressed”. In addition, the “formation of electrophysiologically functional channels” value in test [1] (NR3B coexpressed with NR1 only (n=6)), in test [1] (NR3B coexpressed with NR2A only (n=5)) and in test [1] (expression of NR3B alone in HEK293 cells (n=6)) was “did not result in electrophysiologically functional channels” in each case. The “current amplitude with increasing amount of NR3B plasmid” value in test [1] (NR3B plasmid 0, 1 and 3 μg versus other subunits (each 1 μg), +60 mV, Mg2+-free solution) is “concomitant decrease in current amplitude”. In addition, the “sensitivity of the remaining current to Mg2+ block” value in test [1] (NR3B with NR1 and NR2A, presence or absence of 1 mM Mg2+) is reported as “not affected”. In addition, the “AMPA receptor mediated current” value in test [2] is “unchanged”. Moreover, the “expression levels of NR1 and NR2A (GFP fluorescence)” value in test [3] is “did not show any significant difference”.
